Test [1] has as its target T1, human EGFR (His-Avi Tag, Kactus Biosystem, EGF-HM401) (human, UniProt P00533 25-645).
T1 construct: Bought soluble protein used as SPR analyte; also called hEGFR; not shown: His-Avi tag
Nature of the test: SPR, Biacore T200; ratio of affinities.

A further test deals with T2, human EGFR on cells (human, UniProt P00533 25-1210).
T2 construct: whole, on cells; the cell line is named under assay; also called EGFR-CT26; EGFR/CT26 (EGFR+++, HER3-)
Nature of the test: flow cytometry on EGFR-CT26 cells, PE anti-human IgG Fc. Background: A flow cytometer gives signals particle by particle.

In another test the target is T3, human HER3 on cells (human, UniProt P21860 20-1342).
T3 construct: whole, on cells; Used as target for cells that carry HER3 alone (HER3-CT26) and for the anti-HER3 mAb on tumor lines that carry both receptors; the cell line is named under assay; also called HER3-CT26; HER3/CT26 (EGFR-, HER3+++)
Kind of test: flow cytometry on HER3-CT26 cells, PE anti-human IgG Fc.

Test [2] addresses T4, monkey HER3 (rhesus HER3, C-His Tag, Kactus Biosystem, HER-CM403) (rhesus monkey, UniProt H9ERZ8 20-643).
T4 construct: Bought soluble protein used as SPR analyte; not shown: C-terminal His tag
Kind of test: SPR, Biacore T200; antibody captured on ProA chip, antigen as analyte; 1:1 Langmuir fit.

Test [3] has as its target T1, human EGFR (His-Avi Tag, Kactus …). The description is as above.
Test [4] has as its target T5, human HER3 (His-Avi Tag, Kactus Biosystem, HER-HM403) (human, UniProt P21860 20-643).
T5 construct: Bought soluble protein used as SPR analyte; also called hHER3; not shown: His-Avi tag
Described as above.

The target in test [5] is T6, monkey EGFR (rhesus EGFR, C-His Tag, Kactus Biosystem, EGF-CM101) (rhesus monkey, UniProt P55245 25-645, limits assumed).
T6 construct: Bought soluble protein used as SPR analyte; not shown: C-terminal His tag
The test is described as above.

Usually EC50 stands for the midpoint of the concentration-response curve. One may read the Kd as the constant that tells how readily two partners part at equilibrium. In general, koff refers to a measure of how fast the partners let go of each other. What is called kon is the second-order rate constant of association.

T4 sequence (H9ERZ8 entry or part of it): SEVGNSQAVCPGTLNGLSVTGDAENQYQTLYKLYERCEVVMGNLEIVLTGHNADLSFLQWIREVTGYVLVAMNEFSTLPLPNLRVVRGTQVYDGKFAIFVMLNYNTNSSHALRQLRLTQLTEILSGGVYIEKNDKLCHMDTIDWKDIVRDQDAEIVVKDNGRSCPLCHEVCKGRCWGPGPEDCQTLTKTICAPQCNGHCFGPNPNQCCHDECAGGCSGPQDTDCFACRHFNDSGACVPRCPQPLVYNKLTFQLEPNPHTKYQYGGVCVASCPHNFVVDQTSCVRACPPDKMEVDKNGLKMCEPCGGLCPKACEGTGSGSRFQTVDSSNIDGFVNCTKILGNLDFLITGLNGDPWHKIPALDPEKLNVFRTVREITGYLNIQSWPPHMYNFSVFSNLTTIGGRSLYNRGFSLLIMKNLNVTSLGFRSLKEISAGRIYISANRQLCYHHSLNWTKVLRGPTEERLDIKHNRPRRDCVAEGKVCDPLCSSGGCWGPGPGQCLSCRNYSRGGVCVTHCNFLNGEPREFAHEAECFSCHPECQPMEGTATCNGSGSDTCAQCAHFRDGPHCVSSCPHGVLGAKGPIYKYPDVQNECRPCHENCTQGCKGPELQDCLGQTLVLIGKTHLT

B1: DBXT001-01 (bispecific antibody, human IgG1, kappa)
heavy 1: not shown
light 1: not shown
heavy 2: not shown
light 2: DIQMTQSPSSLSASVGDRVTITCRASQDISNYLNWYQQKPGKAPKLLIYYTSILHSGVPSRFSGSGSGTDYTFTISSLQPEDIATYFCQQGDTLPPTFGGGTKLEIKSSASTKGPSVFPLAPSSKSTSGGTAALGCLVKDYFPEPVTVSWNSGALTSGVHTFPAVLQSSGLYSLSSVVTVPSSSLGTQTYICNVNHKPSNTKVDKKVEPKSC
notes: H1/L1 are the EGFR arm, H2/L2 the HER3 arm; one arm for each antigen; also called BsAb DBXT001-01; EGFR-HER3 BsAb
Consider B1, for which, in test [1], the “fold weaker affinity than its affinity for HER3” value is roughly 16 fold. The “fold weaker affinity than the parent EGFR antibody” value in test [1] was roughly 3 fold. The EC50 with human EGFR on cells is 1.9 nM; with human HER3 on cells, 1.96 nM. For the same molecule, the Kd in test [2] was determined as 0.563 nM; in test [3], 9.29 nM; in test [4] it was 0.56 nM; in test [5], 11.3 nM. In addition, the koff is 0.000157 s⁻¹ in test [2], 0.00055 s⁻¹ in test [3], 0.00018 s⁻¹ in test [4] and 0.000534 s⁻¹ in test [5]. Further, the association rate constant (kon) in test [2] was 278000 M⁻¹ s⁻¹; in test [3], 59200 M⁻¹ s⁻¹; in test [4], 322000 M⁻¹ s⁻¹; in test [5], 47200 M⁻¹ s⁻¹.

B2: anti-HER3 mAb (antibody, human IgG1, kappa, V domains shown)
VH: QVQLQESGPGLVKPSETLSLTCTVSGYSITSAYYWNWIRQPFGKGLEWMGYISYDGRNNFNPSLKNRVTISRDTSKNQFSLKLSSVTAADTAVYYCARDGDYDYFDYWGQGTTVTVSS
VL: DIQMTQSPSSLSASVGDRVTITCRASQDISNYLNWYQQKPGKAPKLLIYYTSILHSGVPSRFSGSGSGTDYTFTISSLQPEDIATYFCQQGDTLPPTFGGGTKLEIKR
notes: expressed in CHO cells; also called HER3 parent mAb; parent HER3 antibody
As to B2, it took 0.28 nM to reach a half-maximal effect with human HER3 on cells (EC50). Besides, in test [4], binding was put at a Kd of 0.493 nM, the koff was determined as 0.000379 s⁻¹ and the kon was 768000 M⁻¹ s⁻¹.

The values above are taken from patent EP4748861A1 (Duality Biologics (Suzhou) Co., Ltd., dated 2025).
